Assay results taken from paper PMC10880428 (Protein Science : A Publication of the Protein Society, 2024).

How the values were obtained:
[1] = biological target: T1, EtgA residues 18–152 with C-terminal 6xHis-tag (enteropathogenic Escherichia coli); experiment: differential scanning fluorimetry
T1 chain: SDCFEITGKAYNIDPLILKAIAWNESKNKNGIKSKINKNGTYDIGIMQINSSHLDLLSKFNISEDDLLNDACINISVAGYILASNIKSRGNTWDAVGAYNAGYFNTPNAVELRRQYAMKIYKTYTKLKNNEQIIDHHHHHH

[2] = biological target: T1, EtgA residues 18–152 with C-terminal …; experiment: MST

B1: EscI peptide comprising EscI residues 66–87 (peptide)
peptide: TAGVSSPEQVLIEEIKKRHLAT
[1]
  increase in Tm of EtgA (250 and 500 μM peptide): 2 °C
[2]
  Kd: 385 ± 35 µM
